This note sets out measurements from PMC3819411.

For this assay, the target named is Bardet-Biedl syndrome 5 protein (BBS5), endogenous in bovine rod outer segments (bovine (endogenous in rod outer segments)). The assay is described as follows: co-IP.

Substance “arrestin1 (Arr1), endogenous in bovine rod outer segments (from UniProt P08168 1-404) (natural protein)” registered a reduction of co-precipitated Arr1 after light or phorbol ester against dark of 50%.
